# Reference: article PMC12840758
# pKd: −log10 of the molar value.
# Molecular target: T1, MtbCspB (cold shock protein CspB) (Mycobacterium tuberculosis H37Rv) (UniProt I6WZM9)
# T1 sequence: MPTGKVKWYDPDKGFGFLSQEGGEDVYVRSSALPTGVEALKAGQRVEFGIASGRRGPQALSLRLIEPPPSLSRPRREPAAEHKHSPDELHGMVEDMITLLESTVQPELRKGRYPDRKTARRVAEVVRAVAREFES
# Assay: SPR
# Settings: […] (or 250 mM) NaCl, 10 mM MgCl2, 0.05% Tween-20, temperature not stated
substance,measurement,value
GUGGUCAGUCGAGUGGUUUUUU [oligoU RNA],pKd,7.73
"MTS0997 sRNA (Mcr11, ncRv1264Ac)",pKd,9.95
"MTS1338 sRNA (DrrS, ncRv11733)",pKd,9.53
